Laboratory results as given in article PMC9934072, “The mechanism of thia-Michael addition catalyzed by LanC enzymes” (Proceedings of the National Academy of Sciences of the …, 2023).
Each block holds one molecule with its values, some of them ahead of it. Square brackets hold non-standard residues; d marks the D form. Ends that are not written are not given here. Dhb = C/C=C(\N)C(=O)O

How the values were obtained:
[1] = biological target: (Z)-Dhb-containing 13-mer Erk peptide (DHTGFL-Dhb-EYVATR)
[2] = biological target: T1, LanCL1 Wild Type (human LanC-like protein 1) (human, UniProt O43813 1-399); test: fluorescence polarisation; competition: 20 μM LanCL1 WT, 20 nM fluorescein-Dha-Erk, acetyl peptide from 1000 μM in 2-fold dilutions; 15 min incubation; triplicates; dose-response fit, Ki = IC50/(1+[L]/Kd); conditions: both partners purified
T1 construct: LanC-like protein 1 (LanCL1), human; also called LanCL1 WT; WT-LanCL1; source: E. coli Rosetta 2 (DE3), purified (HisTrap Ni-NTA, PD-10 desalting)

[3] = biological target: T2, human LanCL1, wild type (His6-LanCL1) (human, UniProt O43813 1-399); test: crystal structure; cocrystals of His6-LanCL1 with GSH soaked in precipitant solution with 2 to 5 mM Dhb-Erk peptide (30, 60 or 90 min); 1.91 Å; the crystal holds the product of GSH addition to the peptide; conditions: both partners purified
T2 construct: LanCL1 (LanC-like protein 1), human; The tag is named on the protein for crystallisation; for the fluorescence polarisation nothing is said of it; also called WT LanCL1; native LanCL1; source: E. coli Rosetta(DE3), pET15b, purified (HisTrap, Superdex 200)
T2 sequence (O43813 whole entry): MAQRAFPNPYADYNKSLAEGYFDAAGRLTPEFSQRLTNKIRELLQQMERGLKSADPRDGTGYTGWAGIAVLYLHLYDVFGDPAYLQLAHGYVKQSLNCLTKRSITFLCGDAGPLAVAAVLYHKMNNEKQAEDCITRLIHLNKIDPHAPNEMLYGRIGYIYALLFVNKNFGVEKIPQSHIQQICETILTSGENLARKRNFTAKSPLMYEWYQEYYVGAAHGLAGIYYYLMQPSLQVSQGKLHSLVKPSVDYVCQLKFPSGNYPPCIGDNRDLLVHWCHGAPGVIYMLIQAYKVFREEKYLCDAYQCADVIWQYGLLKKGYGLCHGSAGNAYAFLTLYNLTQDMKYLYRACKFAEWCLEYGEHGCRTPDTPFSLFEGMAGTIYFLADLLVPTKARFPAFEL

T1 sequence (O43813 whole entry): as above

K (m,peptide) of GSH addition to (Z)-Dhb-Erk peptide (LC-MS initial rates, saturating GSH) [1]: 85 µM
Molecule: LanCL1 C264A (from UniProt O43813 1-399) (enzyme)

Molecule: LanCL1 C264A/H277A (from UniProt O43813 1-399) (enzyme)
K (m,peptide) of GSH addition to (Z)-Dhb-Erk peptide (LC-MS initial rates, saturating GSH) [1]: 240 µM

kcat/K (m,peptide) of GSH addition to (Z)-Dhb-Erk peptide; substrate saturation could not be achieved [1]: 6.17 M⁻¹ s⁻¹
Molecule: LanCL1 C264A/H277D (from UniProt O43813 1-399) (enzyme)

Molecule: LanCL1 C264A/H277K (from UniProt O43813 1-399) (enzyme)
kcat/K (m,peptide) of GSH addition to (Z)-Dhb-Erk peptide; substrate saturation could not be achieved [1]: 2.67 M⁻¹ s⁻¹

Molecule: LanCL1 C264A/H277N (from UniProt O43813 1-399) (enzyme)
K (m,peptide) of GSH addition to (Z)-Dhb-Erk peptide (LC-MS initial rates, saturating GSH) [1]: 417 µM

K (m,peptide) of GSH addition to (Z)-Dhb-Erk peptide (LC-MS initial rates, saturating GSH) [1]: 69 µM
Molecule: LanCL1 C264A/H277Y (from UniProt O43813 1-399) (enzyme)

IC50 [2]: 850 ± 490 µM
Ki [2]: 849 ± 489 µM
B1: acetyl-Ala-Erk peptide (peptide)
peptide: Ac-DHTGFLAEYVATR
notes: Numbers count on: the synthetic 13-mer; Its preparation is not described; also called Ac-Ala-Erk

binding result [3]: binds
B2: (Z)-Dhb-containing 13-mer Erk peptide (DHTGFL-Dhb-EYVATR) (peptide)
peptide: DHTGFL[Dhb]EYVATR
modifications: also: in the crystal Dhb reacted with GSH to form a methyllanthionine
notes: In PDB 8CZK density was seen only for the GFL-Dhb-EY segment, covalently joined to glutathione; also called Dhb-Erk; Dhb-Erk peptide
